Source: patent publication US10208121B2, “Anti-Axl antagonistic antibodies” (BERGEN TEKNOLOGIOVERFORING AS, priority 2014, dated 2019)

T1: human Tyro3 (rhTyro3/Dtk-Fc chimera) (Homo sapiens, UniProt Q06418)
T1 construct: Soluble recombinant antigens corresponding to the extracellular domains of members of the human TAM receptor family; purchased R&D Systems 859-DK
T1 sequence (Q06418 41-429 limits assumed): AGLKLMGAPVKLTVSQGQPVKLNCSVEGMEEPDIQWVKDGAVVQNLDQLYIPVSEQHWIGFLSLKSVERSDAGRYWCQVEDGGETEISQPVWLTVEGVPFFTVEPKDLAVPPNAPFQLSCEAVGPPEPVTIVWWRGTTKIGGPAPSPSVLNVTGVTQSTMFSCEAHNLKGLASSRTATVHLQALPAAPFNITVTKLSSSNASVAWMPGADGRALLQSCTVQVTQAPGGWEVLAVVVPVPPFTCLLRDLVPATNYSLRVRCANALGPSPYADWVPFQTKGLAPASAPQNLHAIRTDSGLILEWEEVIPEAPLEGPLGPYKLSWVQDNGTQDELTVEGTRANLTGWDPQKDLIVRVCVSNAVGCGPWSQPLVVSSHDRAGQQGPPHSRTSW

B1: mouse Gas6: recombinant mouse (rm) Axl-ligand Gas6 (R&D Systems), used as a control (protein)
chain: DQCTPNPCDKKGTHICQDLMGNFFCVCTDGWGGRLCDKDVNECVQKNGGCSQVCHNKPGSFQCACHSGFSLASDGQTCQDIDECTDSDTCGDARCKNLPGSYSCLCDEGYTYSSKEKTCQDVDECQQDRCEQTCVNSPGSYTCHCDGRGGLKLSPDMDTCEDILPCVPFSMAKSVKSLYLGRMFSGTPVIRLRFKRLQPTRLLAEFDFRTFDPEGVLFFAGGRSDSTWIVLGLRAGRLELQLRYNGVGRITSSGPTINHGMWQTISVEELERNLVIKVNKDAVMKIAVAGELFQLERGLYHLNLTVGGIPFKESELVQPINPRLDGCMRSWNWLNGEDSAIQETVKANTKMQCFSVTERGSFFPGNGFATYRLNYTRTSLDVGTETTWEVKVVARIRPATDTGVLLALVGDDDVVPISVALVDYHSTKKLKKQLVVLAVEDVALALMEIKVCDSQEHTVTVSLREGEATLEVDGTKGQSEVSTAQLQERLDTLKTHLQGSVHTYVGGLPEVSVISAPVTAFYRGCMTLEVNGKILDLDTASYKHSDITSHSCPPVEHAT
B2: c10C9: chimeric (mouse variable/human constant) IgG1 counterpart of antibody 10C9 (antibody)
heavy: QVQLQQPGPELVKPGASVKISCKTSDYNFTRYYIHWVKQRPGQGLEWIGWIYPGTGDSKYNEKFKGRATLTADTSSSTAYMQLSSQTSEDSAVYFCARNGNYWYFDVWGAGTAVTVSS
light: DIVMTQAAPSGPVTPGESVSISCRSSKSLLHSNGNTYLYWFLQRPGQSPQLLIYRMSNLASGVPDRFSGSGSGTAFTLRISRVEAEDVGIYYCMQHREYPFTFGGGTKLEIK
modifications: left off: a dimerising Fc or GST
notes: chimeric (mouse variable/human constant) IgG1 counterpart of antibody 10C9

How the values were obtained:
[1] = target: T2, human Axl (rhAxl-Fc chimera) (Homo sapiens, UniProt P30530); assay: Biacore binding analysis on immobilized human Axl; conditions: 10 μg/mL, 25° C.
T2 construct: Soluble recombinant antigens corresponding to the extracellular domains of members of the human TAM receptor family; purchased R&D Systems 154-AL
Protocol: (§1) All binding experiments were performed using Biacore 3000 instrument (GE Healthcare) at 25° C. Soluble recombinant antigens corresponding to the extracellular domains of members of the human TAM receptor family, Axl (rhAxl-Fc chimera; R&D Systems, Cat. no. 154-AL), Mer (rhMer-Fc chimera; R&D Systems, Cat. no. 891-MR) and Tyro3 (rhTyro3/Dtk-Fc chimera; R&D Systems, Cat. no. 859-DK) were immobilized on the surface of CM5 sensor chip using amine coupling at the surface density of 393.0, 303.6 and 364.0 resonance units (RU), respectively. The Biacore run was performed in an automatic mode using Binding analysis wizard. Samples containing either MAb 10C9 or MAb 10G5 at concentration 10 μg/mL in HBS-EP buffer (GE Healthcare) were injected over the surfaces with immobilized antigens at flow rate of 30 μL/min for 3 min (association) followed by 5 min dissociation.
(§2) The binding experiments were performed using Biacore 3000 instrument (GE Healthcare) at 25° C. The soluble recombinant antigens corresponding to human Axl (rhAxl-Fc chimera; R&D Systems, Cat. no. 154-AL), mouse Axl (rmAxl-Fc chimera; R&D Systems, R&D Systems; Cat. no. 854-AX) and human Tyro3 (rhTyro3/Dtk-Fc chimera; R&D Systems, Cat. no. 859-DK) were immobilized on the surface of CM5 sensor chip using amine coupling at the surface density of 1,308.0, 2,115.9 and 1,429.0 RU, respectively. The Biacore runs were performed in an automatic mode using Binding analysis wizard.
(§3) The sample containing either MAb 10C9, MAb 10G5 or recombinant mouse (rm) Axl-ligand Gas6 (R&D Systems, Cat. no. 986-GS/CF) at concentration 10 μg/mL in HBS-EP buffer (GE Healthcare) was injected over the surfaces with immobilized antigens at flow rate of 30 μL/min for 3 min (association) followed by 5 min dissociation.
The sequence of Axl receptor from cynomolgus monkey (Macaca fascicularis; SEQ ID NO.43) was retrieved from WO2009062690A1. Based on the sequence, recombinant extracellular domain of cyno-Axl was generated by transient expression in CHO cells as a fusion protein with human Fc. The recombinant cyno-Axl-Fc was purified to homogeneity using Protein A-Sepharose (GE Healthcare). The binding experiments were performed using Biacore 3000 instrument (GE Healthcare) at 25° C. The soluble recombinant antigens corresponding to human Axl (rhAxl-Fc chimera; R&D Systems, Cat. no. 154-AL) and cyno-Axl were immobilized on the surface of CM5 sensor chip using amine coupling at the surface density of 775 and 880 RU, respectively. The Biacore runs were performed in an automatic mode using Binding analysis wizard.
The sample containing either MAb 10C9, MAb 10G5 or human Axl-specific MAb 5F11 (control) at concentration 10 μg/mL in HBS-EP buffer (GE Healthcare) was injected over the surfaces with immobilized antigens at flow rate of 30 μL/min for 3 min (association) followed by 5 min dissociation.
In addition, the Axl-binding properties of the chimeric antibodies c10C9 and c10G5 were tested using Biacore 3000 instrument (GE Healthcare) and a sensor chip CM5 coated with human Axl (rhAxl-Fc chimera; R&D Systems, Cat. no. 154-AL) at the surface density of 1,308.0 RU. The Biacore runs were performed in an automatic mode using Binding analysis wizard. The samples comprising either the chimeric antibodies c10C9 and c10G5 or their murine counterparts at concentration 10 μg/mL in HBS-EP buffer (GE Healthcare) were injected over the surfaces with immobilized antigens at flow rate of 30 μL/min for 3 min (association) followed by 5 min dissociation.

[2] = target: T1, human Tyro3 (rhTyro3/Dtk-Fc chimera); assay: Biacore binding analysis on immobilized human Tyro3; conditions: 10 μg/mL, 25° C.
Protocol: as §1, §2, §3

[3] = target: T3, mouse Axl (rmAxl-Fc chimera) (Mus musculus, UniProt Q00993); assay: Biacore binding analysis on immobilized mouse Axl; conditions: 10 μg/mL, 25° C.
T3 construct: The soluble recombinant antigens corresponding to human Axl (rhAxl-Fc chimera; R&D Systems, Cat. no; 154-AL), mouse Axl (rmAxl-Fc chimera; purchased R&D Systems 854-AX
Protocol: as §2, §3

[4] = target: T4, rhAxl-Fc chimera (recombinant human Axl) (Homo sapiens, UniProt P30530); assay: Biacore surface plasmon resonance kinetic affinity determination on immobilized rhAxl-Fc; format: binding; conditions: chimeric antibodies, rhAxl immobilized on sensor chip, 25° C., 1:1 Langmuir binding model
T4 construct: Soluble recombinant antigens corresponding to the extracellular domains of members of the human TAM receptor family; purchased R&D Systems 154-AL
Protocol: (§4) Kinetic analysis of MAbs 10C9 and 10G5 interacting with rhAxl immobilized on the surface of the Biacore sensor chip. Overlay plots of sensograms for different antibody concentrations (1.3-666.7 nM for 10C9 and 0.3-166.7 nM for 10G5) are shown. The precise kinetic analysis was performed using BIA evaluation software and curve fitting according to 1:1 Langmuir binding model.
as §4, with “chimeric antibodies c10C9” for “MAbs 10C9”, “c10G5” for “10G5”, “c10C9” for “10C9”, “c10G5)” for “10G5)”
(§5) Affinity determination of anti-Axl antibodies 10C9 and 10G5 was performed at 25° C. by surface plasmon resonance measurements using Biacore 3000 instrument (GE Healthcare). As a solid antigen-coated surface, a sensor chip CM5 with immobilized rhAxl-Fc chimera (R&D Systems, Cat. no. 154-AL) at density 190 RU was used.
(§6) For the kinetics measurements, different concentrations of anti-Axl antibodies (from 0.3 to 666.7 nM) in HBS-EP buffer (Biacore, Cat. no. BR-1001-88) were injected at flow rate of 30 μL/min with 3 min injection time followed by 5 min dissociation (buffer alone). After each cycle, the surface was regenerated by 30 sec injection of a regeneration solution (10 mM HCl, 1 M NaCl) at flow rate 50 μL/min.
The kinetic association (on-rate, kon) and dissociation (off-rate, koff) rates were calculated using BIAevaluation software and 1:1 Langmuir binding model. The equilibrium dissociation constant (KD) was calculated as the koff/kon ratio. The half-life (t1/2) of the formed antibody-antigen complexes was calculated as the ln 2/koff ratio.
as §5, with “of the chimeric” for “of”, “c10C9” for “10C9”, “c10G5” for “10G5”
as §6, with “333.3” for “666.7”

[5] = test system: Axl-positive breast cancer cell line MDA-MB-231; assay: Flow cytometry binding to Axl-positive MDA-MB-231 cells; format: cell-based, human; conditions: different antibody concentrations, MFI
Protocol: Different concentrations of mouse and chimeric antibodies were tested in flow cytometry for binding to triple-negative breast cancer cell line MDA-MB-231. The bound mouse and chimeric antibodies were detected with APC-conjugated donkey F(ab′)2 fragments specific for either mouse IgG (H+L), 1:500 dilution, or human IgG (H+L), 1:300 dilution, respectively (both from Jackson ImmunoResearch). The cell staining was measured using Accuri C6 flow cytometer (BD Biosciences). MFI, geometric mean fluorescence intensity.
The purified chimeric antibodies (>95% purity) were analysed for binding to Axl-positive breast cancer cell line MDA-MB-231 in flow cytometry. For comparison, the parental mouse MAbs 10C9 and 10G5 were used. For flow cytometry, the adherent cells in culture were washed with PBS, detached by treatment with trypsin (0.25%) for 1 min and hitting culture dish for full detachment. Trypsin was quenched by adding into the tissue flask the complete medium followed by washing the cells with PBS. During the washing steps, the cells were collected by centrifugation at 200 g for 5 min. The antibody was diluted for total concentration in PBS containing 0.02% bovine serum albumin (BSA). Cell staining was performed using 200 μL of cell suspension comprising 10^5 cells for 20 min at room temperature. The cell-bound antibodies were detected with APC-conjugated donkey anti-human or anti-mouse, respectively, IgG (H+L) F(ab′)2 fragments (Jackson ImmunoResearch). After two washing steps with PBS/0.02% BSA, the cells were resuspended in 200 μL and kept on ice before analysis on Accuri C6 flow cytometer (BD Biosciences).

T3 sequence (Q00993 19-445 limits assumed, change not shown): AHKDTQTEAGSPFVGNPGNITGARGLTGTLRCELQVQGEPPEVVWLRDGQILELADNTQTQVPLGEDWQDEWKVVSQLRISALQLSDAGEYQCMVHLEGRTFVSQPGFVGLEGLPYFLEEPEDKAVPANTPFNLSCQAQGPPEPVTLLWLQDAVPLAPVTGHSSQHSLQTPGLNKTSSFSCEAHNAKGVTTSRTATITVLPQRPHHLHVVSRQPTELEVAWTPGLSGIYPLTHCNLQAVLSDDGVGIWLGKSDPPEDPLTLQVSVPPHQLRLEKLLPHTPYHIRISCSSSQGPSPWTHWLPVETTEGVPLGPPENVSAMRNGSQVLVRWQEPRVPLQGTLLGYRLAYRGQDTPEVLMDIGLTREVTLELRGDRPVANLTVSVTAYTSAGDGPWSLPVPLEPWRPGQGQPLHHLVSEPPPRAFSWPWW

Molecule	binding to human Axl [1]	binding to human Axl ([1]; listed as murine Gas 6)	binding to human Tyro3 [2]	binding to human Tyro3 ([2]; listed as murine Gas 6)	binding to mouse Axl [3]	binding to mouse Axl ([3]; listed as murine Gas 6)	Off-rate (koff; s^−1) [4]	On-rate (kon; M^−1s^−1) [4]	binding to MDA-MB-231 cells in flow cytometry [5]
B1	strong binding	binds strongly	somewhat weaker binding	more weakly	strong binding	binds strongly	–	–	–
B2	bind immobilized Axl with profiles very similar to the binding profiles of the corresponding mouse antibodies	–	–	–	–	–	0.000219 s⁻¹	2.16e+06 M⁻¹ s⁻¹	Dose-dependent binding
